Measurements taken from paper PMC4454446.
Like-named read-outs stand apart in the source and are kept apart here.

Experiments:
[1] = biological target: chicken bestrophin-1 crystallization construct, amino acids 1-405 (Best1_(cryst)) (chicken (Gallus gallus)); experiment: crystal structure
[2] = biological target: chicken bestrophin-1 crystallization construct, amino acids 1-405 (Best1_(cryst)) (chicken (Gallus gallus)); experiment: SEC
[3] = biological target: chicken bestrophin-1 crystallization construct, amino acids 1-405 (Best1_(cryst)) (chicken (Gallus gallus)); experiment: SEC; remark: listed apart in the source

Q: For “chicken bestrophin-1 crystallization construct, amino acids 1-405 (Best1_(cryst)) (domain or fragment)”, which stoichiometry N [1] is on record?
A: Its stoichiometry N is 5.

B1: Fab fragment of mouse monoclonal antibody 10D10 (Fab, V domains shown)
VH: QVQLQQSGPELVRPGASVKMSCKASGYTFTNYWMHWVKQRPGQALEWIGMIDPSKSETTLNQKFRGKATLNVDKSSNTAYMQLSSLTSEDSAVYYCAREVYYFDYWGQGTTLTVSS
VL: DIQMTQSPASLSASVGETVTITCRASENIYSYLTWYQQKQGKSPQLLVYNAKTLTEGVPSRFSGSGSGTQFSLKINSLQPEDFGGYFCQHHYGTPPTFGGGTKLEVK
Q: With B1 as the molecule, how does the Kd [2] read?
A: The Kd was 15 nM.

Q: What about the Kd [3] of the same molecule?
A: The Kd was 350 nM.
